First the molecules themselves.
B1: Hairpin Ribozyme (parent)
chain: GUCCUCUUUCACGUGCGCGUGAAAGAGAGAAGUGAACCAGAGAAACACACGUUGUGGUAUAUUACCUGGUA

From the RNAGym collection of RNA variant scans (doi:10.7554/elife.80360) come the findings set out here.

The variants in this data set derive from B1. Nature of the data set: self-cleavage, relative activity (ratio to wild type); higher = more cleavage; co-transcriptional.
In the case of U55A A59C, the self-cleavage was determined as 0.252. With U2A G29C the figure was 0.105.

Consider G15A A64U, for which the self-cleavage amounted to 0.233. For G13A U52C the value was 0.625; for A45U G69A, 0.111; for C3G G34A, 0.27. With G34U C46A the figure was 0.239; with U33G G56C, 0.0919. Consider U5A G69U, for which the self-cleavage came to 0.115. With G15U A23G the figure was 0.87; with A64G G68A, 0.226; with G40A A49G, 0.182. For G40A A49U the value was 0.0787; for G21C C50G, 0.278. With A39G C66G the figure was 0.0926; with A47G C65U, 0.156; with U8C G17U, 0.554.

G29U C50U: the self-cleavage is 0.163. With G42U A59G the figure was 0.172. With U60G A71U the figure was 0.395; with A23G G32C, 0.163. With C10U U33G the figure was 0.196; with U60G U63A, 0.173. Turning to A39U A45G, the self-cleavage turned out to be 0.252. For A22C A71G the value was 0.945; for C10A A26G, 0.663. With C12U A71G the figure was 0.797. With A45G U58C the figure was 0.269; with C4U A64C, 0.181. In the case of C6A G27A, the self-cleavage is 0.126. Consider U20A C37G, for which the self-cleavage was 0.375. With U2A U70G the figure was 0.224. C16A U52C: the self-cleavage is 0.841. With U2A C4G the figure was 0.0724; with U2C G17U, 0.1. With C48U A49G, the self-cleavage is 0.153. With C16G A47U the figure was 0.06; with A45C U67C, 0.128; with U14C A28G, 0.65.

Turning to G17C A24G, the self-cleavage is 0.88. As to G51U U58C, the self-cleavage is 0.982. For A45G U62A, the self-cleavage amounted to 0.0572. With A30G A36G the figure was 0.0448; with G21C A24C, 0.556. For G1U U14G, the self-cleavage is 0.184. For U33G A35U, the self-cleavage is 0.16. C3A G27A: the self-cleavage stood at 0.27. For G56A G68A the value was 0.119; for A11G U14C, 0.952. For A11G G15U the value was 0.857. Regarding U20G A41C, the self-cleavage stood at 1.13. In the case of C3U C12A, the self-cleavage came to 0.546.

On to G13A C46G, for which the self-cleavage worked out at 0.0618. For G17U A28U the value was 0.51; for A23C A44G, 0.056. With C4A C50A the figure was 0.178; with U20A A45C, 0.109.

As to C6A U55C, the self-cleavage came out at 0.243.

For A45U U67C, the self-cleavage was found to be 0.0755.

On to G32C A61U, for which the self-cleavage was determined as 0.0498. Take C12U G54A: the self-cleavage turned out to be 0.587. For the variant A35U U52G, the self-cleavage was 0.553. With G1A G32C the figure was 0.318; with U52A U70C, 0.801; with G34C, 1.4. With U7A G57C the figure was 0.151; with U52A U58C, 0.881; with U7C U58A, 0.565. For A22U A23U the value was 0.842. As to A26U G40A, the self-cleavage came to 0.175.

As for U5C U20G, the self-cleavage amounted to 0.508. As for A43G U60A, the self-cleavage amounted to 0.202.

A11U C65A: the self-cleavage came out at 0.719. For the variant A49G U63C, the self-cleavage stood at 0.253. For C38U A44U the value was 0.135; for A45C A49C, 0.142; for C3A G19A, 0.59.

Take C16G C38A: the self-cleavage was found to be 0.154.

As for G21C G25A, the self-cleavage came out at 0.165. As to C6A C66G, the self-cleavage was 0.109. Take A22U A28G: the self-cleavage stood at 1.13. For C16G U55G the value was 0.247. With A26U G42A the figure was 0.153; with A61U C65U, 0.188; with A23G A44C, 0.0975.

Turning to A22U C46G, the self-cleavage came to 0.166. For C10G A71U the value was 0.589. For U20C A41G the value was 0.886; for C37G A41U, 0.541; for G1U A36U, 0.224. With A22U A41U the figure was 1.14; with U9C A41U, 0.966; with C50A U62G, 0.177. Regarding A26C U62C, the self-cleavage was found to be 0.213. For G21U A31C the value was 0.0844; for U9A G21A, 0.573. As to G1A A44C, the self-cleavage stood at 0.2. As for U52G U58C, the self-cleavage is 0.707. With G19C the figure was 0.85; with G13U U52C, 0.655. For U5C C16A the value was 0.693. For G17U G56U, the self-cleavage was found to be 0.112. On to C16A G21A, for which the self-cleavage was determined as 0.67. With C16U A44U the figure was 0.154; with G34A U62G, 0.347. For U33C A49U, the self-cleavage amounted to 0.127. With U7G C50A the figure was 0.167; with G1A U20G, 0.188. With G68C A71C, the self-cleavage stood at 0.436. With U53G U58A the figure was 0.394; with A31U C38U, 0.157; with G17A G27U, 0.324. For C6G A31G the value was 0.355; for A45U U63G, 0.0513; for U8G A49G, 0.264. For C6A U60G the value was 0.4; for A44G U52G, 0.231; for C38G G57C, 0.103. Consider C12A C66G, for which the self-cleavage was 0.208.

Turning to C10U C50G, the self-cleavage came to 0.195. For C12A A59C the value was 0.149; for G29A G34A, 0.201. For G29C G42C the value was 0.142; for C37U C50G, 0.226.

For C10G A61G, the self-cleavage was 0.233. With A47G U70A the figure was 0.204; with G40U G56U, 0.111; with U58C C66U, 0.546.

For A39U C50G, the self-cleavage came out at 0.0689. A39U C50U: the self-cleavage turned out to be 0.204. As for G34U A47U, the self-cleavage came to 0.876.

Take G29C G51A: the self-cleavage amounted to 0.125. Regarding U52C U62A, the self-cleavage was 0.32. For the variant G25U A26U, the self-cleavage came to 0.542.

U8G A31G: the self-cleavage was found to be 0.47. For G1A A71G the value was 0.205; for A11C U62A, 0.208; for U33C U52C, 0.177. For the variant G1A A43U, the self-cleavage came to 0.0738.

In the case of U63A C66A, the self-cleavage came to 0.118. With C4G G21U the figure was 0.123; with G40A G69U, 0.197.

As for G17A A64U, the self-cleavage amounted to 0.151. For C10U U60A the value was 0.67; for U52A U63A, 0.424. For G54U C65A the value was 0.561. Consider G56A G57C, for which the self-cleavage is 0.128. With A23U U60G, the self-cleavage was 0.569. As for A35G A45G, the self-cleavage amounted to 0.0332. Regarding A22C G32A, the self-cleavage is 0.178. For the variant C12U C18U, the self-cleavage worked out at 0.978. With U53A A64U the figure was 0.143; with C6A G69A, 0.23; with A31G G68C, 0.115.

Turning to C6G G54U, the self-cleavage was determined as 0.267. With C46G C66A the figure was 0.253; with U8A C10A, 0.458. With U20G C50A the figure was 0.246; with G25U G29U, 0.126. With U67A U70G the figure was 0.186. As for C10A A28G, the self-cleavage was 1.09. As to G32C G51C, the self-cleavage was determined as 0.0912. For C4U G21A the value was 0.389. A43G A64G: the self-cleavage came to 0.132. For A64C C65U the value was 0.223. For the variant C10G U33A, the self-cleavage was found to be 0.138.

Consider A24G C48U, for which the self-cleavage turned out to be 0.179.
